Results reported in PMC10917276, “A tick saliva serpin, IxsS17 inhibits host innate immune system proteases and enhances host colonization by Lyme disease agent” (PLOS Pathogens, 2024).

B1: rat skin trypsin IV (enzyme, UniProt P12788 24-247, looked up)
chain: IVGGYTCPKHLVPYQVSLHDGISHQCGGSLISDQWVLSAAHCYKRKLQVRLGEHNIHVLEGGEQFIDAEKIIRHPEYNKDTLDNDIMLIKLKSPAVLNSQVSTVSLPRSCASTDAQCLVSGWGNTVSIGGKYPALLQCLEAPVLSASSCKKSYPGQITSNMFCLGFLEGGKDSCDGDSGGPVVCNGEIQGIVSWGSVCAMRGKPGVYTKVCNYLSWIQETMANN
notes: rat trypsin IV, in house expressed; construct not described; also called rat trypsin IV; source: in house expressed
B2: C-terminal hexa-histidine tagged recombinant Ixodes scapularis serpin 17 (rIxsS17) (natural protein)
chain: DDISQDKWKLARANNYLGLNLLKQLPSNDKTNVFFSPFSVSTAMGMAYAGARGDTLEQLTLNFGYAADELNEGKVLALFKEQLQSTNDLPHDYTLNIANAAVAQEGYGILPEYTDALTSSFGAEYIEADFQKRGQEAIQKINAWVSNRTHGKVQSLFDEPPDFSTRLILLNAIYYKGTWLYEFDKTKTKPRSFYNGGVEKVQVPMMRLKSTLNHTYNAILNADLVDLPYVGNDFSMTIILPREKTGLASLKSVLTSQTLNLALQNMYPKDMKLKLPKFKLDTKYTLKPTLEAMGITKIFSADADLSGISGSRNLYVSDVLHKAVLEVNEEGSEAAAVTGFVIQLRTAAFVTPPPLPKVYVDHPFIFLIRNSRTNTIMFLGEINAL
modifications: glycosylated (sites not given)
notes: Ixodes scapularis tick saliva serpin 17 (IxsS17), GenBank EEC18973.1; Codon-optimised synthetic gene in pPICZαA; also called C-terminal-His-rIxsS17; C-terminal His-tagged rIsS17; source: Pichia pastoris X33, secreted into medium, purified (ammonium sulfate, Hi-Trap Chelating HP); not shown: His6, C-terminal, kept
B3: blood clotting factor Xa (enzyme)
chain 1: ANSFLEEMKKGHLERECMEETCSYEEAREVFEDSDKTNEFWNKYKDGDQCETSPCQNQGKCKDGLGEYTCTCLEGFEGKNCELFTRKLCSLDNGDCDQFCHEEQNSVVCSCARGYTLADNGKACIPTGPYPCGKQTLER
chain 2: IVGGQECKDGECPWQALLINEENEGFCGGTILSEFYILTAAHCLYQAKRFKVRVGDRNTEQEEGGEAVHEVEVVIKHNRFTKETYDFDIAVLRLKTPITFRMNVAPACLPERDWAESTLMTQKTGIVSGFGRTHEKGRQSTRLKMLEVPYVDRNSCKLSSSFIITQNMFCAGYDTKQEDACQGDSGGPHVTRFKDTYFVTGIVSWGEGCARKGKYGIYTKVTAFLKWIDRSMKTRGLPKAKSHAPEVITSSPLK

Legend:
[1] = target: bovine pancreatic trypsin (bovine); assay: discontinuous inhibition kinetics from residual protease activity (second-order rate constant); rIxsS17 50-1000 nM with bovine trypsin 14.6 nM, trypsin IV 12.5 nM or fXa 13.9 nM for 0-15 min at 37°C; kobs from semi-log plots, ka from the slope of kobs against rIxsS17 concentration
[2] = target: bovine pancreatic trypsin (bovine); assay: stoichiometry of inhibition from residual protease activity (substrate hydrolysis); molar ratios of His-tagged rIxsS17 to protease 0, 2.5, 5, 10, 20, 25, 50; 15 min at 37°C; bovine trypsin 1.5 nM, rat trypsin IV 2.0 nM or factor Xa 13.9 nM; linear regression extrapolated to zero activity
[3] = target: bovine pancreatic trypsin (bovine)
[4] = target: B2; assay: discontinuous inhibition kinetics from residual protease activity (second-order rate constant); rIxsS17 50-1000 nM with bovine trypsin 14.6 nM, trypsin IV 12.5 nM or fXa 13.9 nM for 0-15 min at 37°C; kobs from semi-log plots, ka from the slope of kobs against rIxsS17 concentration; conditions: both partners purified
rat skin trypsin IV = target: B1; assay: stoichiometry of inhibition from residual protease activity (substrate hydrolysis); molar ratios of His-tagged rIxsS17 to protease 0, 2.5, 5, 10, 20, 25, 50; 15 min at 37°C; bovine trypsin 1.5 nM, rat trypsin IV 2.0 nM or factor Xa 13.9 nM; linear regression extrapolated to zero activity; conditions: both partners purified
blood clotting factor Xa = target: B3; assay: as above; conditions: both partners purified

**Q.** Which kon [1] does the source give for “C-terminal hexa-histidine tagged recombinant Ixodes scapularis serpin 17 (rIxsS17) (from UniProt A0ACM8DKW3 71-455) (natural protein)” here?
**A.** Its kon is 2700 M⁻¹ s⁻¹.

**Q.** And the stoichiometry of inhibition (SI) [2]?
**A.** Its stoichiometry of inhibition (SI) is 12.9.

**Q.** For “N-terminal hexa-histidine tagged rIxsS17 with TEV site (natural protein)”, which decrease in the inhibitory activity against trypsin of the N-terminal hexa-His construct (substrate hydrolysis assay) [3] is on record?
**A.** The decrease in the inhibitory activity against trypsin of the N-terminal hexa-His construct (substrate hydrolysis assay) was 8.6%.

**Q.** For B1, which kon [4] is on record?
**A.** The kon was 3900 M⁻¹ s⁻¹.

**Q.** What does the source list for B2?
**A.** stoichiometry of inhibition (SI) (rat skin trypsin IV): 10.5; stoichiometry of inhibition (SI) (blood clotting factor Xa): 68

**Q.** B3 was tested. Which kon [4] did it give?
**A.** The kon was 540 M⁻¹ s⁻¹.
